From patent US20110263454A1, “Methods of Identifying Functional Characteristics of Promoters, Transcription Modifying Proteins and Transcription Modulating Agents” (Salk Institute for Biological Studies, priority 2008, published 2011)

B1: DAX-1: DAX1 (NR0B1), cDNA driver (protein, UniProt P51843 1-470, looked up)
Nuclear receptor subfamily 0 …: MAGENHQWQGSILYNMLMSAKQTRAAPEAPETRLVDQCWGCSCGDEPGVGREGLLGGRNVALLYRCCFCGKDHPRQGSILYSMLTSAKQTYAAPKAPEATLGPCWGCSCGSDPGVGRAGLPGGRPVALLYRCCFCGEDHPRQGSILYSLLTSSKQTHVAPAAPEARPGGAWWDRSYFAQRPGGKEALPGGRATALLYRCCFCGEDHPQQGSTLYCVPTSTNQAQAAPEERPRAPWWDTSSGALRPVALKSPQVVCEAASAGLLKTLRFVKYLPCFQVLPLDQQLVLVRNCWASLLMLELAQDRLQFETVEVSEPSMLQKILTTRRRETGGNEPLPVPTLQHHLAPPAEARKVPSASQVQAIKCFLSKCWSLNISTKEYAYLKGTVLFNPDVPGLQCVKYIQGLQWGTQQILSEHTRMTHQGPHDRFIELNSTLFLLRFINANVIAELFFRPIIGTVSMDDMMLEMLCTKI
B2: SHP: Small Heterodimer Partner (NR0B2), cDNA driver (protein, UniProt Q15466 1-257, looked up)
Nuclear receptor subfamily 0 …: MSTSQPGACPCQGAASRPAILYALLSSSLKAVPRPRSRCLCRQHRPVQLCAPHRTCREALDVLAKTVAFLRNLPSFWQLPPQDQRRLLQGCWGPLFLLGLAQDAVTFEVAEAPVPSILKKILLEEPSSSGGSGQLPDRPQPSLAAVQWLQCCLESFWSLELSPKEYACLKGTILFNPDVPGLQAASHIGHLQQEAHWVLCEVLEPWCPAAQGRLTRVLLTASTLKSIPTSLLGDLFFRPIIGDVDIAGLLGDMLLLR

How the values were obtained:
MCP-1 promoter = assay: NHR-promoter luciferase screen, MCP-1 promoter; type: cell-based; settings: for Normalized Luc. act., normalized to control / Luc. act., normalized to lacZ: MCP-1 promoter reporter; for Normalized Luc. act., normalized to control: HR without or with its ligand, relative to control; for Luc. act., normalized to lacZ: hormone receptor (HR) without or with its ligand; for mMCP-1 promoter reporter activity: transcription factor +/- ligand, control = 1.00
Procedure, shortened: (§1)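 CV-1 cells were co-transfected with 50 ng NHR (homodimer or NHR/RXR heterodimer), 100 ng promoter-luciferase construct and 50 ng LacZ. Luciferase was normalized to LacZ and to a no-NHR/no-ligand control.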

mABCA1 promoter = assay: NHR-promoter luciferase screen, mABCA1 promoter; type: cell-based, mouse; settings: for Luc. act., normalized to lacZ / Normalized Luc. act., normalized to control: ABCA1 promoter, hormone receptor with or without its ligand; for Normalized Luc. act., normalized to control: relative to control; for mABCA1 promoter reporter activity: transcription factor +/- ligand, control = 1.00
Procedure, shortened: as §1

mDio2 promoter = assay: NHR-promoter luciferase screen, mDio2 promoter; type: cell-based, mouse; settings: for Luc. act., normalized to lacZ / Normalized Luc. act., normalized to control: Dio2, HR component without or with its ligand; for mDio2 promoter reporter activity: transcription factor +/- ligand, control = 1.00
Procedure, shortened: as §1

mPgc1b promoter = assay: NHR-promoter luciferase screen, mPgc1b promoter; type: cell-based, mouse; settings: for Luc. act., normalized to lacZ / Normalized Luc. act., normalized to control: PGC1b promoter reporter, co-transfected HR, without or with its ligand; for Normalized Luc. act., normalized to control: relative to control; for luciferase activity normalized to lacZ activity and to a control, mPgc1b: mPgc1b promoter-luciferase, CV-1 cells, NHR +/- ligand, control = 1.00
Procedure, shortened: (§2)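 CV-1 cells co-transfected with NHR homodimer or NHR/RXR heterodimer (pcDNA3.1, C-terminal V5H6 tag), promoter-luciferase construct and LacZ transfection control. Orphan receptors screened without ligand. Luciferase normalized to LacZ and to no-NHR/no-ligand control.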

hCYP3A4 promoter = assay: NHR-promoter luciferase screen, hCYP3A4 promoter; type: cell-based, human; settings: for Luc. act., normalized to lacZ / Normalized Luc. act., normalized to control: CYP3A4 promoter, HR/ligand component; for hCYP3A4 promoter reporter activity: transcription factor +/- ligand, control = 1.00
Procedure, shortened: as §2

mDio1 promoter = assay: NHR-promoter luciferase screen, mDio1 promoter; type: cell-based, mouse; settings: for Luc. act., normalized to lacZ / Normalized Luc. act., normalized to control: Dio1, HR component without or with its ligand; for mDio1 promoter reporter activity: transcription factor +/- ligand, control = 1.00
Procedure, shortened: as §1

| Molecule | Normalized Luc. act., normalized to control (MCP-1 promoter) | Luc. act., normalized to lacZ (MCP-1 promoter) | mMCP-1 promoter reporter activity (MCP-1 promoter) | Luc. act., normalized to lacZ (mABCA1 promoter) | Normalized Luc. act., normalized to control (mABCA1 promoter) | mABCA1 promoter reporter activity (mABCA1 promoter) | Luc. act., normalized to lacZ (mDio2 promoter) | Normalized Luc. act., normalized to control (mDio2 promoter) | mDio2 promoter reporter activity (mDio2 promoter) | Luc. act., normalized to lacZ (mPgc1b promoter) | Normalized Luc. act., normalized to control (mPgc1b promoter) | luciferase activity normalized to lacZ activity and to a control, mPgc1b (mPgc1b promoter) | Luc. act., normalized to lacZ (hCYP3A4 promoter) | Normalized Luc. act., normalized to control (hCYP3A4 promoter) | hCYP3A4 promoter reporter activity (hCYP3A4 promoter) | Luc. act., normalized to lacZ (mDio1 promoter) | Normalized Luc. act., normalized to control (mDio1 promoter) | mDio1 promoter reporter activity (mDio1 promoter) |
| --- | --- | --- | --- | --- | --- | --- | --- | --- | --- | --- | --- | --- | --- | --- | --- | --- | --- | --- |
| B1 | 1.0 | 108.9 | 1.02 | 5.8 | 1.0 | 1.04 | 18.7 | 1.2 | 1.19 | 7.4 | 0.6 | 0.62 | 5.7 | 1.3 | 1.29 | 8.9 | 2.0 | 2.00 |
| B2 | 1.2 | 130.4 | 1.22 | 6.8 | 1.2 | 1.21 | 18.4 | 1.2 | 1.17 | 9.0 | 0.8 | 0.76 | 4.6 | 1.0 | 1.04 | 4.8 | 1.1 | 1.07 |
